In US20200353078A1 one finds IC50 (nM) Untreated, HUVEC NFkB translocation assay and IC50 (read off the curve) data, which are given here for 16 molecules.

B1: IL33-02 (ligand)
chain: MHHHHHHHHHHAAGLNDIFEAQKIEWHEAAIEGRSITGISPITEYLASLSTYNDQSITFALEDESYEIYVEDLKKDEKKDKVLLSYYESQHPSNESGDGVDGKMLMVTLSPTKDFWLHANNKEHSVELHKSEKPLPDQAFFVLHNMHSNCVSFECKTDPGVFIGVKDNHLALIKVDSSENLCTENILFKLSET
B2: IL33-12 (ligand)
chain: B1 chain with C150S, C155S
B3: IL33-16 (ligand)
chain: B1 chain with C150S, C155S, C182S
B4: IL33-13 (ligand)
chain: B1 chain with C150S, C182S
B5: IL33-03 (ligand)
chain: B1 chain with S131C, C150S
B6: IL33-14 (ligand)
chain: B1 chain with C155S, C182S
B7: IL33-08 (ligand)
chain: B1 chain with C155S
B8: IL33-09 (ligand)
chain: B1 chain with S131C, C150S, C182S
B9: IL33-04 (ligand)
chain: B1 chain with S131C, C155S
B10: IL33-07 (ligand)
chain: B1 chain with S131C, C155S, C182S
B11: IL33-10 (ligand)
chain: B1 chain with S131C, C150S, C155S
B12: IL33-05 (ligand)
chain: B1 chain with S131C, C182S
B13: IL33-06 (ligand)
chain: B1 chain with C150S
B14: IL33-15 (ligand)
chain: B1 chain with S131C, C150S, C155S, C182S
B15: IL330020 scFv (scFv, part only; not given: linker, domain order and tags, V domains shown, not shown: another chain or arm of the molecule; small tags and cut ends)
VH: QVQLVQSGAEVKKPGASVKVSCKASGYTFTSYGISWVRQAPGQGLEWMGWISDYQGYTKYAEKFQGRVTMTTDTSTNTAYMELRSLRSDDTAVYYCARLYSSGWIRQYHFDYWGRGTLVTVSS
VL: SYELTQPPSVSVSPGQTASITCSGDNLKDKYVSWYQQKPGQAPVLVLYQDRKRPSGIPERFSGSNSGNTATLTISGTQAMDEADYYCQAWDSGTAFGGGTKVTVL
B16: IL330259 scFv (scFv, part only; not given: linker, domain order and tags, V domains shown, not shown: another chain or arm of the molecule; small tags and cut ends)
VH: EVQLLESGGGLVQPGGSLRLSCAASGFTFSSYAMSWVRQAPGKGLEWVSASTPWQGSTYYADSVKGRFTISRDNSKNTLYLQMNSLRAEDTAVYYCVRVVAGYFDSWGRGTLVTVSS
VL: SYVLTQPPSVSVSPGQTARITCSGDALPKQYAHWYQQKPGQAPALVIYKDTERPSGIPERFSGSSSGTTVTLTISGVQAEDEADYYCQSADSSGASRVFGGGTKVTVL

Substitutions are numbered along the chain they refer to.

One experiment deals with ST2 on human umbilical vein endothelial cells (human) (UniProt Q01638). Nature of the experiment: cell-based or functional assay.
Chain of ST2 on human umbilical vein endothelial cells (human) (Q01638 19-556): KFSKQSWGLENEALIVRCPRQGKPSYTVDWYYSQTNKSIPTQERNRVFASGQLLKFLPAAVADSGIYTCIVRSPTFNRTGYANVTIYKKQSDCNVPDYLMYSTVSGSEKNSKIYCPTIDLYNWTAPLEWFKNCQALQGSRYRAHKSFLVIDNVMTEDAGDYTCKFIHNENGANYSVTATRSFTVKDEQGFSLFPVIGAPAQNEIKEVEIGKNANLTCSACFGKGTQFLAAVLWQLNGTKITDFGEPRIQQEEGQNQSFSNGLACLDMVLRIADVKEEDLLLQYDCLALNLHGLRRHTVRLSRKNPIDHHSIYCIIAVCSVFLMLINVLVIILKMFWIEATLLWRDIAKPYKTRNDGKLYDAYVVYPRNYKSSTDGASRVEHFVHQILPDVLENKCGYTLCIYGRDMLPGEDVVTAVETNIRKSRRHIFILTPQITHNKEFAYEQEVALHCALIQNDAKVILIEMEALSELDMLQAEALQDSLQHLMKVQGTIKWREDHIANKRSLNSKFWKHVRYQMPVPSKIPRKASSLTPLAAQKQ
For the molecule B1, the IC50 (nM) Untreated, HUVEC NFkB translocation assay came out at 0.19 nM. Take B2: the IC50 (nM) Untreated, HUVEC NFkB translocation assay came out at 0.39 nM. With B3, the IC50 (nM) Untreated, HUVEC NFkB translocation assay turned out to be 0.17 nM. In turn, B4 yielded an IC50 (nM) Untreated, HUVEC NFkB translocation assay of 0.08 nM.

For the molecule B5, the IC50 (nM) Untreated, HUVEC NFkB translocation assay was 0.16 nM. The molecule B6 displayed an IC50 (nM) Untreated, HUVEC NFkB translocation assay of 0.14 nM. Still for that read-out and setting: the figure for B7 is 0.21 nM; for B8 it is 0.2 nM; for B9 it is 0.17 nM.

On to B10, for which the IC50 (nM) Untreated, HUVEC NFkB translocation assay came to 0.22 nM. Molecule B11 had an IC50 (nM) Untreated, HUVEC NFkB translocation assay of 0.61 nM. Take B12: the IC50 (nM) Untreated, HUVEC NFkB translocation assay was determined as 0.1 nM.

Molecule B13 had an IC50 (nM) Untreated, HUVEC NFkB translocation assay of 0.28 nM. Still for that read-out and setting: the figure for B14 is 0.12 nM.

In the next experiment the target is T1, Human IL-33 Flag®His (human).
T1 sequence: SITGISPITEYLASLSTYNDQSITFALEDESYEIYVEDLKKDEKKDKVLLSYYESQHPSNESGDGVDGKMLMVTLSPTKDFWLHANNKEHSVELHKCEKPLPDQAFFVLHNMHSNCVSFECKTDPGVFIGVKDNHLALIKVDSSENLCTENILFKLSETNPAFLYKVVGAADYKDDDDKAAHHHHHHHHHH
Nature of the experiment: HTRF competition: purified scFv titrated against human ST2-Fc for FLAG-His human IL-33. (In general: TR-FRET usually uses a lanthanide donor and a delayed reading to cut background.)
As to B15, the IC50 (read off the curve) was 100 nM.

The target of another experiment is Human IL-33 (Axxora/Adipogen AG-40B-0038) (human) (UniProt O95760). Nature of the experiment: HTRF epitope competition: purified scFv against IL330101 IgG for biotinylated human IL-33.
In turn, B16 registered an IC50 (read off the curve) of 7 nM.
